From patent US20260109776A1 (Amgen, published 2026) come the findings set out here.

In assay [1] the target is T1, human CD40 on cells (human, UniProt P25942 21-277).
T1 construct: also called CD40 receptor on human B cells
In words: flow cytometry, labelled CD40L on CD40-293T cells, antibody at 10 ug/ml. As to the method: Percent ligand binding inhibition was calculated as [(CD40L binding gMFI in the absence of anti-CD40)−(CD40L binding gMFI in the presence of anti-CD40)]/(CD40L binding gMFI in the absence of anti-CD40). gMFI: geometric mean fluorescent intensity. All anti-CD40 antibodies show minimal effects on the ability of CD40L to bind to the CD40 receptor (Table 7).
A general note: A flow cytometer gives signals particle by particle.

Assay [2] has as its target T2, mouse CD40 on cells (mouse, UniProt P27512 20-289).
T2 construct: whole, on cells; also called mouse CD40 on HEK293 cells; CD40 on mouse B cells
T2 sequence (looked up): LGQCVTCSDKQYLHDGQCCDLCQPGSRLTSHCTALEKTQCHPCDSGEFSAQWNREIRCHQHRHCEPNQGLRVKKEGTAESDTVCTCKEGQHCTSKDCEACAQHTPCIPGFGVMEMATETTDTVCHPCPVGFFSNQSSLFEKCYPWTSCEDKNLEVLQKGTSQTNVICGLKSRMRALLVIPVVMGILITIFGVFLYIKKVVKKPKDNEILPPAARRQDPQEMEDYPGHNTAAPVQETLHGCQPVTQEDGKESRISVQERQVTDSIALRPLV
In words: flow cytometry, HEK293 transfectants vs control cells. As to the method:
(§1) The binding affinity of anti-human CD40 antibodies to human and cynomolgus monkey CD40 was measured by Octet assay (Table 3), quantifying association rate (Kon), disassociation rate (Kdis), and equilibrium binding constant (KD). Cross-reactivity of anti-CD40 antibodies to related TNF receptor superfamily (TNFRSF) members was evaluated by expressing human TNFR1, TNFR2, TNFR10, or TNFR14 on HEK293 cells by transient transfection of expression vectors encoding these genes. Binding of indicated anti-human CD40 antibody to these transfected cells was determined by flow cytometry. […] Cross-reactivity of anti-CD40 antibodies to cynomolgus monkey and mouse CD40 was evaluated by expressing cynomolgus monkey or mouse CD40 on HEK293 cells by transient transfection of expression vectors encoding these genes. Binding of indicated anti-human CD40 antibody to cells overexpressing cynomolgus monkey and mouse CD40 was determined by flow cytometry.

Assay [3] deals with T3, human TNFR2 (human, UniProt P20333 23-461).
T3 construct: whole, on cells
T3 sequence (looked up): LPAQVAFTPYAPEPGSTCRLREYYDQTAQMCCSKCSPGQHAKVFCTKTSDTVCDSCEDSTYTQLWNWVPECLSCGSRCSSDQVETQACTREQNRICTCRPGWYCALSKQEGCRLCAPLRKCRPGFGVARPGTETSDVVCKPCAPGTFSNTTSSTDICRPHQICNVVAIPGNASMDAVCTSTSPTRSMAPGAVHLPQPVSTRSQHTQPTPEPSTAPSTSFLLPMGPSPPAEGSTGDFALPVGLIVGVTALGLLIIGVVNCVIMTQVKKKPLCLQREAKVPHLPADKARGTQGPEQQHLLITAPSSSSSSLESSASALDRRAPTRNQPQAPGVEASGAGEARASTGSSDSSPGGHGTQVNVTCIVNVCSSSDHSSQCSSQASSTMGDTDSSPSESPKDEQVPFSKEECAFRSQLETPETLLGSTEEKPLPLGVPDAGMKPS
Described as above. As to the method:
as §1

The target in assay [4] is T4, cynomolgus monkey CD40 on cells (cynomolgus monkey, UniProt P25942 21-277 (human entry)).
T4 construct: also called cyno CD40 on HEK293 cells; CD40 on cynomolgus monkey B cells
T4 chain: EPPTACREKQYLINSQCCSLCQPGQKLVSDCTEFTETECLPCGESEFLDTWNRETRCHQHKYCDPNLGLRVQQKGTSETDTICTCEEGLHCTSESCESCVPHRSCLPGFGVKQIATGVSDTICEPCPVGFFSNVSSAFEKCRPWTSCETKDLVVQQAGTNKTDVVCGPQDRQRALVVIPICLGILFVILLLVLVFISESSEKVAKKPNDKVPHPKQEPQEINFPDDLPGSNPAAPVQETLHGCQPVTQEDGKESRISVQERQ
Described as above. As to the method:
as §1

In assay [5] the target is T5, human TNFR10 (human).
T5 construct: whole, on cells; Name as printed is ambiguous (TNFRSF10A-D)
The description is as above. As to the method:
as §1

Assay [6] has as its target T6, human TNFR1 (human, UniProt P19438 30-455).
T6 construct: whole, on cells
T6 sequence (looked up): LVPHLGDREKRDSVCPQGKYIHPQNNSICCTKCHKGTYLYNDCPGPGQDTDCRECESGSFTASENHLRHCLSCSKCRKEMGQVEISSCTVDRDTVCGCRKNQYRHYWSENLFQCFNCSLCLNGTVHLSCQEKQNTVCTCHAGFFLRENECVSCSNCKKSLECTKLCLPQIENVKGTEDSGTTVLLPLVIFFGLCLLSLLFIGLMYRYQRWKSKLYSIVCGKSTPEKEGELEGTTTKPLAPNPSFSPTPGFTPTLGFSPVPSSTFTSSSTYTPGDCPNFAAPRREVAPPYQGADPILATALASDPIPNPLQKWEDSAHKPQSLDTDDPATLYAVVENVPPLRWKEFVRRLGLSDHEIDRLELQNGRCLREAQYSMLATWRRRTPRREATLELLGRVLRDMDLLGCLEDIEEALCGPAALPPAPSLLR
The assay is described as above. As to the method:
as §1

Assay [7] concerns the target T7, human TNFR14 (human, UniProt Q92956 39-283).
T7 construct: whole, on cells
T7 sequence (looked up): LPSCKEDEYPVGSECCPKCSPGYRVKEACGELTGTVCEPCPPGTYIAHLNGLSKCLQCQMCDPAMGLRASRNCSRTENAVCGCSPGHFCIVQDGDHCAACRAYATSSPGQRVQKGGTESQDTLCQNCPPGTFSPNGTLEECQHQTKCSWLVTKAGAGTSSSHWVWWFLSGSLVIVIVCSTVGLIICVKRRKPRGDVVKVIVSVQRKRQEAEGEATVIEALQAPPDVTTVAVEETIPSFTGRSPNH
Described as above. The procedure: as §1

T1 sequence (P25942 21-277 limits assumed): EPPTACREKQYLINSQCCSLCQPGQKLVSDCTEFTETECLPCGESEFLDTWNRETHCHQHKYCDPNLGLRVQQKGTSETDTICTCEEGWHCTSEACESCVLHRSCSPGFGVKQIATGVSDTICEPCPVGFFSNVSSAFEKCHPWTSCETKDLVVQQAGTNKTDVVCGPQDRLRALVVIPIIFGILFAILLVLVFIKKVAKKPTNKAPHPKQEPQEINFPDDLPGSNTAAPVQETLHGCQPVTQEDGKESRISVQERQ

B1: 30A12 (antibody, IgG4, V domains shown)
VH: EVQLLESGGGLVQPGGSLRLSCAASGFTFSRNAMSWVRQAPGKGLEWVSATGGSGISTYYADSVKGRFTISRDNSKNTLYLQMNSLRAEDTAVYYCARGYSNSWWYFDYWGQGTLVTVSS
VL: QSALTQPASVSGSPGQSITISCTGTSSDVGNYNLVSWYQQHPGKAPKLMIFEVNQRPSGVSNRFSGSKSGTTASLTISGLQAADEADYFCCSYTTSSTYVIFGGGTKLTVLG
notes: also called 4878-1
With B1, the “Ligand Binding Inhibition (%)” value in assay [1] is -8%. The “fold over control (gMFI)” value in assay [2] was determined as 1.3 fold; in assay [3] it was 0.89 fold; in assay [4], 71 fold; in assay [5], 0.91 fold; in assay [6], 1.07 fold; in assay [7], 0.96 fold.
